The source of these data is US20240075137A1 (COMPUGEN, published 2024).

Where two headings read alike, the source gives them in different places.

One may read the Kd as the concentration at which binding is half-saturated. As usually defined, the IC50 is the midpoint of a concentration-inhibition curve. The low end stands for greater potency, the high end for weaker potency. As a reminder, the EC50 is the concentration that produces a half-maximal response. A lower EC50 goes with higher potency in that assay.

The target in assay [1] is T1, mPVRL2 HIS (mouse, UniProt P32507 32-351, limits assumed).
T1 construct: also called mPVRL2 protein; Soluble PVRL2 HIS protein
T1 sequence (looked up): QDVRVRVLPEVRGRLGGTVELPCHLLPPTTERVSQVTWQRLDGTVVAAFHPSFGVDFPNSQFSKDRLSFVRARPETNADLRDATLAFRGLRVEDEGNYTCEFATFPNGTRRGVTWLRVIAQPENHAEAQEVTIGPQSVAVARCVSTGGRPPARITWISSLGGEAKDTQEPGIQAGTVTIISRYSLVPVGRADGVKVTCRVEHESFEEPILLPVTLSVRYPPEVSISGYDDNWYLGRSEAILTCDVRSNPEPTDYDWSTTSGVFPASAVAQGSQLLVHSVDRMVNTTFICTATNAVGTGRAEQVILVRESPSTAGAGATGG
The experiment in a line: ELISA: soluble receptor Fc titrated on immobilized mPVRL2 HIS. On the technique in general: An ELISA detects its analyte on a solid surface through an enzyme-linked reagent.

The target of assay [2] is T2, Cyno TIGIT-His.
T2 construct: also called cyno TIGIT monomer (prepared in-house); C-terminal HIS-tagged cyno TIGIT ECD recombinant protein
The experiment in a line: SPR (ProteOn), Cyno TIGIT-His.

Assay [3] has as its target T3, human TIGIT ECD with C-terminal polyhistidine tag (human, UniProt Q495A1 22-141).
T3 construct: in-house or Sino Biological; also called hTIGIT-HIS; human TIGIT-HIS
T3 sequence: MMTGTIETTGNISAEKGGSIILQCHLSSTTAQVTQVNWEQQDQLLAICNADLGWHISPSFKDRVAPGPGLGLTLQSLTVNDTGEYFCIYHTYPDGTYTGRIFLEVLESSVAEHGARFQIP
The assay can be described thus: SPR (ProteOn), Human TIGIT-His.

The target in assay [4] is T3, human TIGIT ECD with C-terminal …. The experiment in a line: SPR (ProteOn), mAb captured, human TIGIT injected; BM29 as hIgG4.
The target in assay [5] is T4, Mouse TIGIT-His (mouse, UniProt P86176).
T4 construct: also called mouse TIGIT monomer (prepared in-house)
T4 sequence (soluble monomer with His tag, looked up): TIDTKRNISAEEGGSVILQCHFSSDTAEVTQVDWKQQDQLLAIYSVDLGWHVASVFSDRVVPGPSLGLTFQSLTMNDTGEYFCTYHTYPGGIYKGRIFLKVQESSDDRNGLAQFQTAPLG
The assay can be described thus: SPR (ProteOn), mAb captured, mouse TIGIT monomer injected; BM29 as hIgG4.

The target of assay [6] is T5, human TIGIT on cells (human, UniProt Q495A1 22-141).
T5 construct: also called Expi293 human TIGIT over-expressing cells
T5 sequence: T3 sequence
The experiment in a line: FACS titration of AF647-labelled mAb on human effector memory CD8+ T cells, Donor 321.

Assay [7] concerns the target T5, human TIGIT on cells. The experiment in a line: FACS titration of AF647-labelled mAb on human effector memory CD8+ T cells, Donor 322.
Assay [8] deals with T5, human TIGIT on cells. The experiment in a line: FACS titration of AF647-labelled mAb on human effector memory CD8+ T cells, Donor 334.
The target in assay [9] is T5, human TIGIT on cells. The assay can be described thus: FACS titration on human TIGIT OE Expi293 cells, binding site concentration; ± 95% CI; 'Fit: Excellent'.
Assay [10] deals with T6, cyno TIGIT on cells (cynomolgus macaque).
T6 construct: whole, on cells; also called Expi293 cyno TIGIT over-expressing cells
The experiment in a line: FACS titration on cyno TIGIT OE Expi293 cells, binding site concentration; ± 95% CI; 'Fit: Good/Excellent'.

Assay [11] concerns the target T5, human TIGIT on cells. The experiment in a line: FACS blocking of human PVR-m2aFc binding to human TIGIT OE Expi293 cells; binding site concentration; n=1.
The target in assay [12] is T5, human TIGIT on cells. The experiment in a line: FACS blocking of human PVR-m2aFc binding to human TIGIT OE Expi293 cells; binding site concentration; n=2.
The target in assay [13] is T7, human PVRIG on cells (human, UniProt Q6DKI7 1-326).
T7 construct: whole, on cells; over-expressed on HEK cells or endogenous on Jurkat and CD8 T cells; also called hPVRIG; HEK hPVRIG cells
T7 sequence (looked up): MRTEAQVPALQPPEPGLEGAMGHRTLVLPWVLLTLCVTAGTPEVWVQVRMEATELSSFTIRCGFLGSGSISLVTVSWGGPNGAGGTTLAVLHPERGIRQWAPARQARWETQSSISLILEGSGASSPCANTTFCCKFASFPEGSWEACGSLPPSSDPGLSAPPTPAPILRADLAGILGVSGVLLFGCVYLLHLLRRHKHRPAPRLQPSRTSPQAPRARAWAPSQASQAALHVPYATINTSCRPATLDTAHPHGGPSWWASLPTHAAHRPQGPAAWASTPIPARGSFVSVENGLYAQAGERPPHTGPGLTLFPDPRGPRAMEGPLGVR
The experiment in a line: flow cytometry titration, Jurkat cells. Background: Flow cytometry measures light scatter and fluorescence of single cells or particles in a stream.

Assay [14] has as its target T7, human PVRIG on cells. The assay can be described thus: flow cytometry titration, HEK hPVRIG cells.
In assay [15] the target is T8, cynomolgus PVRIG on cells (cynomolgus, UniProt A0A2K5WVV8 41-322).
T8 construct: whole, on cells; also called cPVRIG; expi cPVRIG cells
T8 sequence: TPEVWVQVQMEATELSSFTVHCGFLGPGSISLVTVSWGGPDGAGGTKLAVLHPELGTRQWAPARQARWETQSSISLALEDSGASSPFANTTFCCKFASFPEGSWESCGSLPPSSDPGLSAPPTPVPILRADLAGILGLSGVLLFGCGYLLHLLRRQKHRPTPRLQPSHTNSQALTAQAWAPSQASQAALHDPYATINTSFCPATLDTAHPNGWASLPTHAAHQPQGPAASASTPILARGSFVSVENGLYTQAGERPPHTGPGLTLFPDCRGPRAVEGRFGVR
The experiment in a line: flow cytometry titration, expi cPVRIG cells.

Assay [16] has as its target T7, human PVRIG on cells. The assay can be described thus: FACS competition: PVRL2 mFc binding to HEK hPVRIG cells.
For assay [17], the target named is T7, human PVRIG on cells. The experiment in a line: FACS on Jurkat cells pre-incubated with Isotype (unconjugated).
In assay [18] the target is T7, human PVRIG on cells. The experiment in a line: FACS on Jurkat cells pre-incubated with CHA.7.518.1 (unconjugated).
For assay [19], the target named is T7, human PVRIG on cells. The assay can be described thus: FACS on Jurkat cells pre-incubated with CHA.7.538.1.2 (unconjugated).
Assay [20] concerns the target T9, PVRIG Fc (UniProt Q6DKI7 41-171, limits assumed, biotinylated (Example 5)).
T9 construct: also called biotinylated PVRIG Fc protein; PVRIG-Fc-fusion protein
T9 sequence (looked up): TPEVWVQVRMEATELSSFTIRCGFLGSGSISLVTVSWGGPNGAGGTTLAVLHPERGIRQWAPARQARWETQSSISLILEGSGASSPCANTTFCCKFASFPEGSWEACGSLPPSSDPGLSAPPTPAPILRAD
The experiment in a line: FACS competition: biotinylated PVRIG Fc (33 nM) binding to HEK cells with endogenous PVRL2.

Assay [21] has as its target T7, human PVRIG on cells. The experiment in a line: flow cytometry, Jurkat cells.
Assay [22] addresses T7, human PVRIG on cells. The assay can be described thus: flow cytometry, HEK hPVRIG cells.
The target of assay [23] is T7, human PVRIG on cells. The assay can be described thus: FACS, HEK hPVRIG cells (HEK OE).
In assay [24] the target is T7, human PVRIG on cells. The experiment in a line: FACS on Jurkat cells; column head 'Kd', unit nM from legend paragraph 75.
Assay [25] deals with T7, human PVRIG on cells. The experiment in a line: FACS on HEK hPVRIG cells; column head 'Kd', unit nM from legend paragraph 75.
The target in assay [26] is T10, PVRIG (FACS-based competition assay of FIGS. 7 and 15) (Homo sapiens, UniProt Q6DKI7).
T10 construct: made because the format of the assay is only described in U.S. Ser. No. 15/048,967; also called human PVRIG
T10 sequence (receptor, looked up): T9 sequence (looked up)
The experiment in a line: FACS-based competition assay of PVRIG blocking; format and competitor not given.

Assay [27] has as its target T10, PVRIG (FACS-based competition assay of …). The description is as above. The source holds these as a separate data set.

T2 sequence (ECD with C-terminal His tag, as listed by the source): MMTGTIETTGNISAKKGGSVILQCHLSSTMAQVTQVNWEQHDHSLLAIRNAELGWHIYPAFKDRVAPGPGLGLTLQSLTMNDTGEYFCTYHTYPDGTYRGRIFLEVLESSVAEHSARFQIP

B1: TIGIT Fc (Fc fusion, UniProt P86176 29-148, looked up)
fusion chain: T4 sequence (soluble monomer with His tag, looked up)
notes: receptor part of an Fc fusion; Soluble receptor Fc tested on immobilized mPVRL2 HIS
In the case of B1, the binding result in assay [1] is “no binding (tested: about 200 nM)”.

B2: BM29 hIgG4 (antibody, V domains shown)
VH: QVHLQESGPGLVKPSETLSLTCTVSGGSVSSGIYYWSWIRQPPGKGLEWIGYIYYSGSTNYNPSLKSRVTISVDTSKNQFSLKLSSVTAADTAVYYCARDYYVSGNYYNVDYYFFGVDVWGQGTTVTVSS
VL: EIVLTQSPATLSLSPGERATLSCRASQSVSSYLAWYQQKPGQAPRLLIYDASNRATGIPARFSGSGSGTDFTLTISSLEPEDFAVYYCQQRSNWPPLFTFGPGTKVDIKR
notes: benchmark anti-human TIGIT antibody, human IgG4 with S241P; also called BM29-H4; US2016/0176963A1 Clone 22G2 as hIgG4
Regarding B2, the Kd in [2] was determined as 1.54 nM; in [3], 0.011 nM; in assay [4] it was 0.015 nM; in [6], 0.88 nM; in assay [7] it was 0.91 nM; in assay [8], 0.59 nM. In addition, the equilibrium dissociation constant (Kd) in [9] worked out at 1.53 nM; in assay [10], 1.67 nM. Further, in assay [5], the binding result was “no binding (tested: 92.9 nM mouse TIGIT)”. Also, the results for the 50% inhibitory concentration (IC50) in [11] and in [12] were 1 nM and 0.5 nM, respectively.

B3: CHA.7.538.1.2.H4(S241P) (antibody, human IgG4 S228P, kappa, V domains shown)
VH: QVQLVQSGAEVKKPGASVKVSCKASGYAFTNYLIEWVRQAPGQGLEWIGVINPGSGGIYYAQKFQGRVTMTADTSTSTVYMELSSLRSEDTAVYYCARSETHDTWFAYWGQGTLVTVSS
VL: DIQMTQSPSSLSASVGDRVTITCKASQSVRIAVAWFQQKPGKAPKALIYLASTRHTGVPSRFSGSGSGTDFTLTISSVQPEDFATYYCLQHWNYPYTFGQGTKLEIKR
notes: humanized, human IgG4 with S241P
With B3, the Kd worked out at 0.59 nM in assay [13], 0.86 nM in assay [14] and 0.58 nM in [15]. The IC50 was 2.53 nM in assay [16] and 16.1 nM in assay [20]. The entries for the “% binding relative to maximum signal” value in assay [17], in [18] and in [19] were 100%, 32% and 7%, respectively.

B4: CHA.7.518 (antibody, V domains shown)
VH: EVQLQQSGPELVKPGASVKISCKASGYTFTDYNINWVKQSHGKSLEWIGYIYPYIGGSGYNQKFKSKATLSADNPSSTAYMELRSLTSEDSAVYYCAREDKTARNAMDYWGQGTPVTVSS
VL: DIQMTQSPASLSVSVGETVTIICRVSENIYSNLAWYQQKQGKSPQLLVYEATNLAEGVPSRFSGSGSGTQYSLKINSLQSEDFGSYYCQHFWGTPYTFGGGTKLEIK
For B4, the “fold higher affinity than CPA.7.021” value in assay [21] is approximately 13 fold; in assay [22], approximately 8 fold. The molecule also yielded an EC50 in assay [23] of 0.36 nM. Also, the results for the dissociation constant (Kd) in assay [24] and in [25] were 0.24 nM and 0.36 nM, respectively. Besides, the 50% inhibitory concentration (IC50) in [26] and in assay [27] was 23.1 nM each time.
